Assay results from publication PMC5527709 (Drug delivery and translational research, 2013).

T1: human CD133 protein (coated on ELISA wells) (human) (UniProt O43490)
T1 sequence: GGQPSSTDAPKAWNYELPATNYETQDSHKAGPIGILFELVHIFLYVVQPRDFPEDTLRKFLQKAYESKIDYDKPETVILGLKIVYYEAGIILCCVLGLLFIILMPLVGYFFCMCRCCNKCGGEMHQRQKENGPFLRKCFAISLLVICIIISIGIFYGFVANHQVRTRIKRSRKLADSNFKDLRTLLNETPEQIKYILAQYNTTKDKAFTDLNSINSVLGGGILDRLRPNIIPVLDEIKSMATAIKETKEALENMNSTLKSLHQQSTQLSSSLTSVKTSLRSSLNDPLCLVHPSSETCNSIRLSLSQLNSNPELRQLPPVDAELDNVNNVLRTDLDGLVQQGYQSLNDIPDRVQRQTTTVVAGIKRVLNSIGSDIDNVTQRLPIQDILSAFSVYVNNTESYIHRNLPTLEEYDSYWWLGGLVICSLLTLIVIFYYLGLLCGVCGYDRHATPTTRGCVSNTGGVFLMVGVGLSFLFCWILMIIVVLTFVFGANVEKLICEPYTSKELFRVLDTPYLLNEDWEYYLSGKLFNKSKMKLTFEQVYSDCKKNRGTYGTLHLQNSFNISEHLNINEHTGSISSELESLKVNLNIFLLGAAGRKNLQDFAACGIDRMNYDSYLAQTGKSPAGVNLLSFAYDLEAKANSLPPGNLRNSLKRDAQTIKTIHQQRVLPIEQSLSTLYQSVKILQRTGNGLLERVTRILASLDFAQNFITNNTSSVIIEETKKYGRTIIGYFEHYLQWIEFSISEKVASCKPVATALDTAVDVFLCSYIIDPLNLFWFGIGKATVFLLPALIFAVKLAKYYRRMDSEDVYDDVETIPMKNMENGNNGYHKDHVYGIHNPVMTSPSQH


Key:
[1] = molecular target: T1, human CD133 protein (coated on ELISA wells) (human); test: ELISA
[2] = molecular target: human CD133 on Caco-2 cells (Homo sapiens, endogenous in Caco-2, UniProt O43490); test: flow cytometry on cells

absorbance at 450 nm [1] [AU] | binding result [2] | Binder
0.9 |  | anti-CD133 scFv clone 11, HA-tagged, secreted into bacterial culture supernatant (scFv, V domains shown) VH: EVKLVESGPELKKPGETVKISCKASGYTFTDYSMHWVNQAPGKGLKWMGWINTETGEPSYADDFKGRFAFSLETSASTAYLQINNLKNEDTATYFCATDYGDYFDYWGQGTTLTVSS VL: DIVLSQSPAIMSASPGEKVTISCSASSSVSYMYWYQQKPGSSPKPWIYRTSNLASGVPARFSGSGSGTSYSLTISSMEAEDAATYYCQQYHSYPPTFGAGTKLELK
 | binds | anti-CD133 scFv (clone 11) without HA epitope tag, FITC-labelled (scFv, V domains shown) VH: EVKLVESGPELKKPGETVKISCKASGYTFTDYSMHWVNQAPGKGLKWMGWINTETGEPSYADDFKGRFAFSLETSASTAYLQINNLKNEDTATYFCATDYGDYFDYWGQGTTLTVSS VL: DIVLSQSPAIMSASPGEKVTISCSASSSVSYMYWYQQKPGSSPKPWIYRTSNLASGVPARFSGSGSGTSYSLTISSMEAEDAATYYCQQYHSYPPTFGAGTKLELK
